Data on 167 variants can be found in the Human Domainome abundance scans (Beltran et al. 2025).

± gives the uncertainty stated by the source.

The labels stand for the following.
B1: Tyrosine-protein kinase Lck, residues 63 to 120; numbered along this chain, P06239 (parent)
chain: DNLVIALHSYEPSHDGDLGFEKGEQLRILEQSGEWWKAQSLTTGQEGFIPFNFVAKAN

Variants of B1 are the subject of this data set. As to the kind of experiment: abundance fitness (aPCA) (normalised: wild type 0, dead -1); higher = more abundant; growth selection in yeast, the domain comes from the species named. The note with it: Homo sapiens.
Consider L41R, for which the abundance fitness was -0.513 ± 0.073.
Under L41W stands -0.933 ± 0.12.
The same measure for L41Y: -0.65 ± 0.16; for L41C: -0.068 ± 0.1.
In the case of L41G, the abundance fitness is -0.721 ± 0.08.
The same measure for L41K: -0.348 ± 0.16; for L41M: -0.227 ± 0.13; for L41D: -0.666 ± 0.2.
The same measure for L41F: -0.54 ± 0.12; for L41S: -0.478 ± 0.077; for L41Q: -0.167 ± 0.2.
The same measure for L41E: -0.153 ± 0.099.
For L41I, the abundance fitness was -0.058 ± 0.14.
With L41P, the abundance fitness is -0.339 ± 0.14.
Under L41T stands -0.149 ± 0.11.
With L41A, the abundance fitness was -0.382 ± 0.094.
For L41H, the abundance fitness is -0.765 ± 0.18.
Take T43K: the abundance fitness was -0.698 ± 0.16.
Under T43S stands -0.101 ± 0.088; under T43Q, -0.549 ± 0.14.
Under T43P stands -0.909 ± 0.16; under T43I, -0.941 ± 0.26; under T43G, -0.658 ± 0.063.
Under T43L stands -0.831 ± 0.11.
Consider T43H, for which the abundance fitness was -0.622 ± 0.24.
As for T43V, the abundance fitness is -0.854 ± 0.097.
Regarding T43Y, the abundance fitness was -0.85 ± 0.2.
Under T43C stands -0.949 ± 0.25; under T43A, -0.617 ± 0.11; under T43N, -0.277 ± 0.21.
The same measure for T43E: -0.643 ± 0.13.
Regarding T43M, the abundance fitness was -0.766 ± 0.17.
On to T43W, for which the abundance fitness is -1.1 ± 0.18.
Under T43F stands -0.957 ± 0.26.
For the variant T43R, the abundance fitness was -0.624 ± 0.085.
The same measure for T43D: -0.446 ± 0.12; for S32I: -0.226 ± 0.11; for S32W: -0.455 ± 0.14.
As for S32A, the abundance fitness is -0.067 ± 0.091.
S32T: the abundance fitness was 0.05 ± 0.11.
As for S32D, the abundance fitness was -0.07 ± 0.1.
Under S32G stands -0.071 ± 0.091; under S32Q, 0.182 ± 0.22.
Under S32Y stands -0.082 ± 0.12; under S32R, 0.012 ± 0.081.
The same measure for S32L: -0.377 ± 0.088; for S32K: 0.06 ± 0.13.
S32E: the abundance fitness was 0.182 ± 0.13.
The same measure for S32P: -0.407 ± 0.14.
On to S32N, for which the abundance fitness was found to be 0.101 ± 0.14.
Turning to S32H, the abundance fitness is -0.302 ± 0.18.
With Q45T, the abundance fitness is -0.146 ± 0.11.
With Q45C, the abundance fitness is -0.117 ± 0.11.
The same measure for Q45K: -0.101 ± 0.15; for Q45M: -0.092 ± 0.11; for Q45I: -0.662 ± 0.42.
For Q45P, the abundance fitness is -0.57 ± 0.16.
Take Q45V: the abundance fitness was -0.187 ± 0.1.
As for Q45S, the abundance fitness was -0.282 ± 0.098.
Q45H: the abundance fitness was -0.23 ± 0.21.
The same measure for Q45A: -0.087 ± 0.09; for Q45F: -0.303 ± 0.18; for Q45G: -0.308 ± 0.068.
Consider Q45L, for which the abundance fitness was -0.112 ± 0.087.
Take Q45W: the abundance fitness was -0.599 ± 0.091.
Consider Q45R, for which the abundance fitness is -0.015 ± 0.065.
For the variant Q45D, the abundance fitness was -0.217 ± 0.15.
Under Q45N stands -0.288 ± 0.23.
With Q45E, the abundance fitness was 0.001 ± 0.1.
The same measure for A38W: -0.598 ± 0.19; for A38I: -0.788 ± 0.3; for A38D: -1.01 ± 0.31.
The same measure for A38R: -1.08 ± 0.15.
Under A38G stands -0.483 ± 0.077; under A38Q, -0.891 ± 0.34.
For the variant A38F, the abundance fitness is -0.771 ± 0.28.
Under A38Y stands -0.714 ± 0.22.
Regarding A38L, the abundance fitness is -0.337 ± 0.1.
With A38C, the abundance fitness is -0.4 ± 0.12.
As to A38E, the abundance fitness is -0.934 ± 0.19.
For A38S, the abundance fitness was -0.795 ± 0.16.
On to A38M, for which the abundance fitness is -0.656 ± 0.2.
The same measure for A38T: -0.963 ± 0.23.
The same measure for A38N: -0.445 ± 0.26; for A38K: -0.927 ± 0.27.
On to A38V, for which the abundance fitness was -0.104 ± 0.082.
The same measure for E46N: -0.217 ± 0.16.
As to E46L, the abundance fitness was -0.157 ± 0.077.
As to E46I, the abundance fitness was determined as 0.131 ± 0.12.
The same measure for E46H: -0.448 ± 0.13; for E46F: -0.294 ± 0.13.
Under E46K stands -0.05 ± 0.16; under E46A, -0.024 ± 0.089.
On to E46M, for which the abundance fitness is -0.032 ± 0.11.
The same measure for E46C: -0.023 ± 0.11.
Under E46G stands -0.632 ± 0.076.
Under K37H stands -0.388 ± 0.29; under K37E, -0.435 ± 0.1.
As to K37C, the abundance fitness is -0.593 ± 0.12.
For K37F, the abundance fitness is -0.229 ± 0.14.
The same measure for K37I: -0.151 ± 0.12.
K37W: the abundance fitness was -0.152 ± 0.088.
Take K37T: the abundance fitness is -0.267 ± 0.1.
Under K37V stands -0.232 ± 0.092; under K37N, -0.548 ± 0.17.
Under K37S stands -0.321 ± 0.085.
Under K37D stands -1.16 ± 0.29; under K37G, -0.96 ± 0.14.
With K37R, the abundance fitness is -0.046 ± 0.073.
The same measure for K37Q: -0.406 ± 0.14.
Under K37A stands -0.615 ± 0.12; under K37Y, -0.177 ± 0.14.
As to K37P, the abundance fitness is -0.808 ± 0.18.
Under K37M stands -0.307 ± 0.12; under T42S, -0.031 ± 0.078; under T42W, -0.24 ± 0.078.
Turning to T42Q, the abundance fitness is -0.057 ± 0.12.
For T42K, the abundance fitness worked out at 0.042 ± 0.12.
The same measure for T42E: -0.015 ± 0.13; for T42P: -0.715 ± 0.14; for T42R: -0.059 ± 0.064.
The same measure for T42D: -0.181 ± 0.13.
For the variant T42L, the abundance fitness was -0.12 ± 0.097.
Under T42H stands -0.08 ± 0.15.
T42I: the abundance fitness is -0.049 ± 0.083.
Under T42A stands -0.035 ± 0.082.
Under T42Y stands -0.129 ± 0.15; under T42N, 0.034 ± 0.14.
Under T42M stands -0.101 ± 0.15.
For T42F, the abundance fitness was -0.305 ± 0.14.
Regarding T42G, the abundance fitness is -0.248 ± 0.079.
The same measure for T42V: -0.001 ± 0.11.
Regarding L26V, the abundance fitness is -0.781 ± 0.12.
As for L26Y, the abundance fitness is -0.929 ± 0.26.
The same measure for L26S: -0.84 ± 0.16.
The same measure for L26W: -0.864 ± 0.15; for Q31P: -0.235 ± 0.15; for Q31D: -0.011 ± 0.12.
Under Q31W stands -0.161 ± 0.11.
Regarding Q31R, the abundance fitness was found to be 0.054 ± 0.081.
The same measure for Q31I: -0.552 ± 0.26; for Q31T: -0.291 ± 0.12.
The same measure for Q31H: -0.301 ± 0.17; for Q31Y: -0.234 ± 0.17.
As for Q31A, the abundance fitness amounted to 0.032 ± 0.1.
For the variant Q31L, the abundance fitness was -0.707 ± 0.1.
The same measure for Q31F: -0.5 ± 0.15.
Under Q31C stands -0.097 ± 0.15.
The same measure for Q31E: 0.025 ± 0.12; for Q31K: 0.003 ± 0.17.
Consider Q31V, for which the abundance fitness was -0.354 ± 0.11.
For L29A, the abundance fitness is -0.645 ± 0.092.
For L29H, the abundance fitness was -0.184 ± 0.21.
As to L29W, the abundance fitness was -0.87 ± 0.2.
Turning to L29K, the abundance fitness is -0.325 ± 0.14.
The same measure for L29M: -0.315 ± 0.14; for L29C: -0.441 ± 0.15; for L29Y: -0.227 ± 0.32.
Under L29F stands -0.527 ± 0.17; under L29S, -0.44 ± 0.11.
The same measure for L29D: -0.852 ± 0.18.
On to L29T, for which the abundance fitness is -0.283 ± 0.097.
Under L29I stands -0.339 ± 0.18.
Under L29R stands -0.591 ± 0.091; under L29P, -1.05 ± 0.2.
Under L29Q stands -0.401 ± 0.18; under L29G, -0.734 ± 0.089.
